Source: US20260242436A1 (HANMI PHARM, published 2026)
Residue numbers refer to the chain shown, from its start. Values belong to the binder of their own block, whether it stands above or below them.

Key:
[1] = molecular target: T1, interleukin-2 beta receptor (SYMANSIS, #4122H) to which a human immunoglobulin Fc region was linked (UniProt P14784 27-239, limits assumed); test: SPR (Biacore T200); receptor-Fc captured on anti-human Ig CM5 chip, analog flowed; relative to analog 1 = 100%
T1 construct: Bought receptor-Fc, captured on anti-human immunoglobulin antibody; also called IL-2Rβ; CD122; not shown: human immunoglobulin Fc region
T1 sequence (looked up): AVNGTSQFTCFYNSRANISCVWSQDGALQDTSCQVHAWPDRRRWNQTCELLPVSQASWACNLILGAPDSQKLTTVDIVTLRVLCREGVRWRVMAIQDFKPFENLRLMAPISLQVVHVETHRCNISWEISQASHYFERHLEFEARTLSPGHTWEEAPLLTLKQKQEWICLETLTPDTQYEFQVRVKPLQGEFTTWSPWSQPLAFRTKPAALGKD
Procedure: (§1) In order to measure the binding affinities of the interleukin-2 analogs obtained in Example 4 for each of interleukin-2 alpha and beta receptors, surface plasmon resonance (SPR, BIACORE T200, GE Healthcare) was used. The binding affinities of the prepared analogs for the alpha and beta receptors were measured, and the binding affinity of each of the prepared analogs was compared with that of interleukin-2 analog 1 (aldesleukin).
(§2) First, an anti-human immunoglobulin antibody (Abcam, #ab97221) was immobilized to a CM5 chip (GE healthcare) to about 5,000 resonance unit (RU) through amine coupling, and then the interleukin-2 alpha receptor ([…], #4102H) or interleukin-2 beta receptor ([…], #4122H), to each of which a human immunoglobulin Fc region was linked, was bound to the immunoglobulin antibody using an antigen-antibody binding reaction and thus finally immobilized. Thereafter, the recombinant interleukin-2 analog prepared above was diluted with HBS-P+ buffer (Cytiva, BR100671) to various concentrations by serial dilution, and the diluted samples were allowed to flow through CM5 chips, to which the interleukin-2 receptors were finally immobilized, to measure the binding affinity of each interleukin-2 receptor. […] Upon the completion of the measurement, the binding affinity of the receptor was evaluated according to the 1:1 binding fitting model in the Biaevaluation program.

[2] = molecular target: T2, interleukin-2 alpha receptor (SYMANSIS, #4102H) to which a human immunoglobulin Fc region was linked (UniProt P01589 22-213, limits assumed); test: as above
T2 construct: Bought receptor-Fc, captured on anti-human immunoglobulin antibody; also called IL-2Rα; CD25; not shown: human immunoglobulin Fc region
T2 sequence (looked up): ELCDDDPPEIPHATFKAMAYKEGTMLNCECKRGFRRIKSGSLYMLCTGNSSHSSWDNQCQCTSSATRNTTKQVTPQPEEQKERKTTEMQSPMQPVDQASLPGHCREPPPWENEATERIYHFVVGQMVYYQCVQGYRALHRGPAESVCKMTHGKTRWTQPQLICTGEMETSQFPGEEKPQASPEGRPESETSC
Procedure: as §1, §2

B1: interleukin-2 analog 71 (ligand)
chain: PTSSSTKKTQLQLEHLLLDLQMILNGINNYKNPKLTAMLTKKFYMPKKATELKHLQCLEEELKPLEEVLNLAQSKNFHFEPRDVVSNINVFVLELKGSETTFMCEYADETATIVEFLNRWITFSQSIISTLT
Relative binding affinity (%) [1]: 17100%

B2: interleukin-2 analog 99 (ligand)
chain: B1 chain with K41F, V84L
Relative binding affinity (%) [1]: 1510% | Relative binding affinity (%) [2]: 19.9%

B3: interleukin-2 analog 74 (ligand)
chain: B1 chain with A37D, F79Y, E80D
Relative binding affinity (%) [1]: 8150%

B5: interleukin-2 analog 34 (ligand)
chain: B1 chain with K41F, E80R, D83E, V84L, V85I, F91I
Relative binding affinity (%) [1]: 322% | Relative binding affinity (%) [2]: 9.4%

B6: interleukin-2 analog 13 (ligand)
chain: B1 chain with K41A, F79L, E80R, V84L, V85I, F91I
Relative binding affinity (%) [1]: 149% | Relative binding affinity (%) [2]: 1.1%

B10: interleukin-2 analog 59 (ligand)
chain: B1 chain with E80D, V84A, V85A, F91Y
Relative binding affinity (%) [1]: 1530%

B11: interleukin-2 analog 70 (ligand)
chain: B1 chain with F79Y, E80D
Relative binding affinity (%) [1]: 10200%

B12: interleukin-2 analog 24 (ligand)
chain: B1 chain with L18V, F79L, E80R, V84L, V85I, F91I
Relative binding affinity (%) [1]: 37.9%

B13: interleukin-2 analog 77 (ligand)
chain: B1 chain with K42E, E60R, E80D, V84W
Relative binding affinity (%) [1]: 644%

B15: interleukin-2 analog 35 (ligand)
chain: B1 chain with K41F, F79L, E80R, V84L, V85I, F91I, L93F, L95F
Relative binding affinity (%) [1]: 233% | Relative binding affinity (%) [2]: 31.7%

B16: interleukin-2 analog 76 (ligand)
chain: B1 chain with K42Q, E60R, E80D, V85G
Relative binding affinity (%) [1]: 1040%

B17: interleukin-2 analog 31 (ligand)
chain: B1 chain with K41F, F79L, E80R, D83E, V84L, V85I, F91I
Relative binding affinity (%) [1]: 236% | Relative binding affinity (%) [2]: 5%

B18: interleukin-2 analog 18 (ligand)
chain: B1 chain with E60Q, F79L, E80R, V84L, V85I, F91I
Relative binding affinity (%) [1]: 35.3%

B19: interleukin-2 analog 16 (ligand)
chain: B1 chain with F79L, E80R, V84L, V85I, N87Q, F91I
Relative binding affinity (%) [1]: 1260% | Relative binding affinity (%) [2]: 0.2%

B22: interleukin-2 analog 75 (ligand)
chain: B1 chain with Y44A
Relative binding affinity (%) [1]: 9570%

B23: interleukin-2 analog 25 (ligand)
chain: B1 chain with L18F, F79L, E80R, V84L, V85I, F91I
Relative binding affinity (%) [1]: 21.7%

B25: interleukin-2 analog 55 (ligand)
chain: B1 chain with Q73H, E80D, V84L, V85I
Relative binding affinity (%) [1]: 3030%

B28: interleukin-2 analog 58 (ligand)
chain: B1 chain with E80D, V84A, V85A
Relative binding affinity (%) [1]: 7770%

B30: interleukin-2 analog 57 (ligand)
chain: B1 chain with Y44A, Q73H, E80D, V84L, V85I
Relative binding affinity (%) [1]: 2570%

B32: interleukin-2 analog 41 (ligand)
chain: B1 chain with A37R, K41F, E80D
Relative binding affinity (%) [1]: 22800% | Relative binding affinity (%) [2]: 121%

B34: interleukin-2 analog 14 (ligand)
chain: B1 chain with L18Y, F79L, E80R, V84L, V85I, F91I
Relative binding affinity (%) [1]: 130%

B37: interleukin-2 analog 84 (ligand)
chain: B1 chain with L17R, Q21E, A37R, K41F, F79V, E80D, V84E
Relative binding affinity (%) [1]: 711%

B38: interleukin-2 analog 17 (ligand)
chain: B1 chain with F79L, E80R, V84L, V85I, V90T, F91I
Relative binding affinity (%) [1]: 9.4% | Relative binding affinity (%) [2]: 29.6%

B41: interleukin-2 analog 61 (ligand)
chain: B1 chain with F79Y, E80D, V84G, F91Y
Relative binding affinity (%) [1]: 1040%

B42: interleukin-2 analog 73 (ligand)
chain: B1 chain with E80D, V84W
Relative binding affinity (%) [1]: 1590%

Other lines, results leading:

Relative binding affinity (%) [1]: 12800% | Relative binding affinity (%) [2]: 98.4%
B4: interleukin-2 analog 90 (ligand)
chain: B1 chain with A37R, K41W

Relative binding affinity (%) [1]: 26800% | Relative binding affinity (%) [2]: 247%
B7: interleukin-2 analog 105 (ligand)
chain: B1 chain with L17R, Q21E, A37R, K41F, E67D

Relative binding affinity (%) [1]: 2530% | Relative binding affinity (%) [2]: 29.1%
B8: interleukin-2 analog 100 (ligand)
chain: B1 chain with A37R, K41F, V84Y

Relative binding affinity (%) [1]: 3020% | Relative binding affinity (%) [2]: 18.8%
B9: interleukin-2 analog 97 (ligand)
chain: B1 chain with K41F, E80D, V84L, V85I

Relative binding affinity (%) [1]: 7360% | Relative binding affinity (%) [2]: 7.9%
B14: interleukin-2 analog 91 (ligand)
chain: B1 chain with A37R, K41F, E60Q

Relative binding affinity (%) [1]: 697% | Relative binding affinity (%) [2]: 92.8%
B20: interleukin-2 analog 93 (ligand)
chain: B1 chain with A37R, K41F, D83E, V90T

Relative binding affinity (%) [1]: 17.1% | Relative binding affinity (%) [2]: 10.7%
B21: interleukin-2 analog 95 (ligand)
chain: B1 chain with A37R, K41F, V68G

Relative binding affinity (%) [1]: 229% | Relative binding affinity (%) [2]: 14.9%
B24: interleukin-2 analog 96 (ligand)
chain: B1 chain with A37R, K41F, V68G, Q73A

Relative binding affinity (%) [1]: 25400% | Relative binding affinity (%) [2]: 122%
B26: interleukin-2 analog 104 (ligand)
chain: B1 chain with L17R, Q21E, A37R, K41F, E60D

Relative binding affinity (%) [1]: 113% | Relative binding affinity (%) [2]: 24.7%
B27: interleukin-2 analog 101 (ligand)
chain: B1 chain with A37R, K41F, V84L, V85A

Relative binding affinity (%) [1]: 13900% | Relative binding affinity (%) [2]: 102%
B29: interleukin-2 analog 88 (ligand)
chain: B1 chain with A37R, K41F, E60D

Relative binding affinity (%) [1]: 4450% | Relative binding affinity (%) [2]: 151%
B31: interleukin-2 analog 102 (ligand)
chain: B1 chain with A37R, K41F, F91I

Relative binding affinity (%) [1]: 18700% | Relative binding affinity (%) [2]: 71.1%
B33: interleukin-2 analog 86 (ligand)
chain: B1 chain with L17R, Q21E, A37R, K41F

Relative binding affinity (%) [1]: 11100% | Relative binding affinity (%) [2]: 7.7%
B35: interleukin-2 analog 98 (ligand)
chain: B1 chain with K41F, V85I

Relative binding affinity (%) [1]: 35.5%
B36: interleukin-2 analog 94 (ligand)
chain: B1 chain with A37R, K41F, L93F, L95F

Relative binding affinity (%) [1]: 13100% | Relative binding affinity (%) [2]: 6.1%
B39: interleukin-2 analog 103 (ligand)
chain: B1 chain with L17R, Q21E, K41F

Relative binding affinity (%) [1]: 1510% | Relative binding affinity (%) [2]: 97.3%
B40: interleukin-2 analog 92 (ligand)
chain: B1 chain with A37R, K41F, V90T
